The data set has as its target PRDM9Cst (Mus musculus (CAST/EiJ)) (UniProt Q96EQ9). Nature of the data set: EMSA competition. The settings on record: 10 mM Tris pH 7.5, 50 mM KCl, 1 mM DTT, 50 ng/ul poly(dI/dC), 0.05% NP-40, 0.5 pmol labelled dsDNA (printed pmol/l), 3 ul E. coli extract in 20 ul, 40 min, 5% …. Background: Mobility shift assays separate free from complexed probe on a gel.

Chain of PRDM9Cst (Mus musculus (CAST/EiJ)) (Q96EQ9 whole entry): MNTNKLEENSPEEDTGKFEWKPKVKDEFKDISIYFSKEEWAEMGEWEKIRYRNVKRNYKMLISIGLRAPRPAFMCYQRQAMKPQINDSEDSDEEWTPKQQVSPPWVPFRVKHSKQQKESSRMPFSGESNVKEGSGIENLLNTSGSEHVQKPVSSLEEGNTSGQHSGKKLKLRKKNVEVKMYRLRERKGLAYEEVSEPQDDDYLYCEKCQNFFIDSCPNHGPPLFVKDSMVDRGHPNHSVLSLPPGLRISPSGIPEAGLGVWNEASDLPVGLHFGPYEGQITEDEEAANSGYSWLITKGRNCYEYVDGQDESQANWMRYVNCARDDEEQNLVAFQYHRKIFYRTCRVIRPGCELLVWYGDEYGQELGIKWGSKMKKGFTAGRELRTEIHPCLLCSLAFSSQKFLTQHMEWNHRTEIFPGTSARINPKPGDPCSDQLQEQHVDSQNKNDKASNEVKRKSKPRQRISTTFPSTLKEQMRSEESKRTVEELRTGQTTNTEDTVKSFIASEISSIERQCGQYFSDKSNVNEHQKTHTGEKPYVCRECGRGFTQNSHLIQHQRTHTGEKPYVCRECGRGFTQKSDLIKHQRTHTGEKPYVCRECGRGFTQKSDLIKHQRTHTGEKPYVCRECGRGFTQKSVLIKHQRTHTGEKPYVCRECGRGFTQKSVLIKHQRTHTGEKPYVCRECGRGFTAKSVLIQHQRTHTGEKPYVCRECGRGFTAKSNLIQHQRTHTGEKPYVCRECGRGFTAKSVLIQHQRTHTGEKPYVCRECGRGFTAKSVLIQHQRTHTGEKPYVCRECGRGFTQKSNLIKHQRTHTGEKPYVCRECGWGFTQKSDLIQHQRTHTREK

Sequence “ATAAGTGTTCAGACTTGGACTCTGCCCTTCCTTTAC (double strand) [Hlx1 36 bp CAST]” displayed a binding signal (scale: reference) of 1.

Sequence “ATAGTGTGCAGACTTGGACCCTGCCCTTTCTTTACG (double strand) [Hlx1 36 bp B6]” came in with a binding signal (fold stronger than CAST sequence) of 2.9.
